In PMC10497535, “Identification of the SNARE complex that mediates the fusion of multivesicular bodies with the plasma membrane in exosome secretion” (Journal of Extracellular Vesicles, 2023):

Assays:
[1] = biological target: T1, Syx-4 (residues 1-274, the cytoplasmic fragment) (human, UniProt Q12846 1-274); assay: pull-down; 2 μM GST-VAMP-7 SNARE motif with 3 μM Syx-4 (1-274) and/or 3 μM SN-23 on glutathione Sepharose 4B, 4°C, 5 h; washed with 20 mM Tris-HCl pH 8.0, 150 mM NaCl, 1% Triton X-100; SDS-PAGE; settings: both partners purified
T1 construct: syntaxin-4, human, cytoplasmic fragment, residues 1-274; Cloned into pET28a; 'purified as previously described'; also called cytoplasmic fragment of Syx-4; source: E. coli BL21 DE3, purified (Nickel-NTA)

[2] = biological target: T2, recombinant SN-23, mutant of full-length human SNAP-23 (C79A, C80A, C83A, C85A, C87A, C112A) (human, UniProt O00161 1-211, C79A | C80A | C83A | C85A | C87A | C112A); assay: as above; settings: both partners purified
T2 construct: SNAP-23, human, full length (residues 1-211) with six cysteines changed to alanine; Cloned into pET28a; source: E. coli BL21 DE3, purified (Nickel-NTA)
T2 sequence (looked up): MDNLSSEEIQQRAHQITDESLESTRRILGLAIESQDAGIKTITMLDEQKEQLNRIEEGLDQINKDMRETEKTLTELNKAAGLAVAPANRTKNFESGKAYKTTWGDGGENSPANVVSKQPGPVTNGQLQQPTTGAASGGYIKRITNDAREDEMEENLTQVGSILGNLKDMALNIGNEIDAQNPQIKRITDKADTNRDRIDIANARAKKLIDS

binding result [1]: binds
binding result [2]: binds
B1: GST-tagged VAMP-7 SNARE motif (residues 125-185) (domain or fragment, human, UniProt P51809 125-185, looked up)
chain: KVMETQAQVDELKGIMVRNIDLVAQRGERLELLIDKTENLVDSSVTFKTTSRNLARAMCMK
notes: pGEX-6p-1; PreScission-cleavable GST tag, not cleaved for the pull-down; also called GST-VAMP-7 SNARE motif; source: E. coli BL21 DE3, purified (glutathione Sepharose 4B, eluted with glutathione); not shown: GST, N-terminal, kept
